In publication PMC4663164 (The Biochemical journal, 2015):

Assays:
[1] = target: CK1-phosphorylated HMR-1^1108–1223 (polyhistidine-tagged) (C. elegans); assay: liposome co-flotation
[2] = target: HMR-1^S1212E (polyhistidine-tagged HMR-1^1108–1223) (C. elegans); assay: liposome co-flotation
[3] = target: HMR-1^S1212E,T1215E,S1218E (polyhistidine-tagged HMR-1^1108–1223) (C. elegans); assay: liposome co-flotation
[4] = target: HMR-1^T1215E,S1218E (polyhistidine-tagged HMR-1^1108–1223) (C. elegans); assay: liposome co-flotation
[5] = target: the molecule itself; assay: SEC-MALS

fold enhancement in HMP-1/HMP-2 recovery against unphosphorylated HMR-1 [1] | fold increase in HMP-1/HMP-2 recovery against unmodified HMR-1^1108–1223 [2] | fold increase in HMP-1/HMP-2 association against unmodified HMR-1^1108–1223 [3] | fold increase in HMP-1/HMP-2 binding against unmodified HMR-1^1108–1223 [4] | Molecule | stoichiometry N [5]
6 fold | 1.8 fold | 2.2 fold | 1.4 fold | HMP-1/HMP-2 complex (untagged, purified) (from UniProt P90947 1-927; O44326 1-678) | –
– | – | – | – | recombinant full-length HMP-2 (natural protein, C. elegans, UniProt O44326 1-678, looked up) MLLHSTNSYSIFTDHEVETRTSRIRSAMFPDWIPPTSAAEATNSTTSIVEMMQMPTQQLKQSVMDLLTYEGSNDMSGLSLPDLVKLMCDHDESVVARAVHRAYMLSREDPNFFNAPGFDHRSFVEALMAASKSSNVNVRRNAIGALSHMSEQRGGPLLIFRSGGLAEIIRMLYDSLESVVHYAVTTLRNLLMHVSDSRAQARALNAVEALTPHLHKTNPKLLAQVADGLYFLLIDDAPSKITFLSLLGPQILVSILREYSDHRKLIYTVVRCIRSLSVCPSNKPALISLGCLPALYVELCTAKDERSQTAILVAMRNLSDSATNEENLTQLIIKLLEIIRVANDGMTACACGTLSNLTCNNTRNKQTVCSHGGIDALVTAIRRLPEVEEVTEPALCALRHCTARHSLAEEAQSELRFCQAFPVILDQLETLRTPVIKAALGVIRNSALLQTNLIELTQEQTANGHTAVSLTMDILRRAITAIEENPDIAVDGVPMWGVIEGAVSALHQLANHPAVAAACCDDIGQVGNPECPPFLDLLHRLLAHPRLGSMDDEVLEREILGLLYQLSKRPDGARAVESTGVSALLMESRGSQYKSVVTYANGVLSNLKRGDSAAIMNMSNSYDYEMSGSAADWQRDGLERELFAEMYPTNDGGHSESINMALNNSQMRPNHNWYDTDL | 2
